Experimental data from publication PMC6411775.
Values joined by “and” are separate entries in the source; they are usually repeats but may differ in a detail not shown here. Identical values can stand only once.

Biological target: full length human histone 3 lysine 4 demethylase KDM5B, His6 tag cleaved (human) (UniProt Q9UGL1)
Assay: SPR; KDM5B immobilised by amine coupling (490 RU and 975 RU); NCPs injected in eight concentrations (two-fold dilutions from 250 nM); 15 °C; 20 mM Hepes, 300 mM NaCl, 1 mM EDTA, 0.005% Tween 20, 1 mM DTT; steady state, 1:1 model; apparent

UniProt Q9UGL1, sequence (Q9UGL1 whole entry): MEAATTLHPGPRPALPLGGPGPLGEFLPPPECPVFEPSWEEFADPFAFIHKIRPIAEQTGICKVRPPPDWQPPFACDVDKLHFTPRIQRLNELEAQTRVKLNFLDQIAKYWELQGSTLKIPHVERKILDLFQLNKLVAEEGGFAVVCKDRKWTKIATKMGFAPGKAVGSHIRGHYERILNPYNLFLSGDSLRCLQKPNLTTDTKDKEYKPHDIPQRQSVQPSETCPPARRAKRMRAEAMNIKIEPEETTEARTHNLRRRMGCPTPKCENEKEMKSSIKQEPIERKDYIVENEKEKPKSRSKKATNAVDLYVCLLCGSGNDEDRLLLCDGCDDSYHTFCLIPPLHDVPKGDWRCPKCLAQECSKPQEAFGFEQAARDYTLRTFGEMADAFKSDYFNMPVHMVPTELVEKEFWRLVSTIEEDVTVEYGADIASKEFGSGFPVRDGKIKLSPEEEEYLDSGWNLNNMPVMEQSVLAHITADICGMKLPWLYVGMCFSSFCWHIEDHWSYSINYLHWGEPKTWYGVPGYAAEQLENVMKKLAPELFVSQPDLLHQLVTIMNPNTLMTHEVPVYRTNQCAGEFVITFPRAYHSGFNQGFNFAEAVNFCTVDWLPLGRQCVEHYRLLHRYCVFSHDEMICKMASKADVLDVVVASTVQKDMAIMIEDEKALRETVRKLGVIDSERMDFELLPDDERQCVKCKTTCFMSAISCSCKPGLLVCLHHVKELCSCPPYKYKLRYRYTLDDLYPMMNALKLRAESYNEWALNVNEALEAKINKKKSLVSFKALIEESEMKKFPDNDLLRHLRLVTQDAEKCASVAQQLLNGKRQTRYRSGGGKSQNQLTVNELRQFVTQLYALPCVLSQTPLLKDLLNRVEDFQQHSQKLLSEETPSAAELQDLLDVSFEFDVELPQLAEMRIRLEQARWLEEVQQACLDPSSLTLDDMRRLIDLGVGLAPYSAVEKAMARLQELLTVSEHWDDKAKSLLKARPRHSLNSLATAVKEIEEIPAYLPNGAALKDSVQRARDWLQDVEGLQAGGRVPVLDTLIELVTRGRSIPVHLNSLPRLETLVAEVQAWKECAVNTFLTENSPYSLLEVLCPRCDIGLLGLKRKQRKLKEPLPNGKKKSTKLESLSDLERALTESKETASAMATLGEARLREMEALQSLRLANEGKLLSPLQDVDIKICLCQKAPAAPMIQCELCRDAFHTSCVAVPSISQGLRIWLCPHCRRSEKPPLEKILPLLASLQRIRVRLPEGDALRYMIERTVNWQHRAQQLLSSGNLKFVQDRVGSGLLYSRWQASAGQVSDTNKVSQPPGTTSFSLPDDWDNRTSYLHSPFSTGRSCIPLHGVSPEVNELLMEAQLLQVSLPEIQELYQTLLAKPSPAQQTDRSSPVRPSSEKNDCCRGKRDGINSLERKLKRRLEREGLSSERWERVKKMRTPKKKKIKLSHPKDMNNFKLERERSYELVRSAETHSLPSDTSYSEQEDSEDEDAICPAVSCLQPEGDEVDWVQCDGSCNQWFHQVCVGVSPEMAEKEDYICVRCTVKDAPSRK

- Kd: 20.3 nM and 27.7 nM
Substance: Nucleosome core particles (NCPs), recombinant Xenopus laevis histone octamer on the Widom 601 DNA (complex)
